Literature values in paper PMC12368481, “Discovery of a Phenylalanine‐Derived Natural Compound as a Potential Dual Inhibitor of MDM2 and MDMX” (Chemmedchem, 2025).
Read-outs that look alike come from different tables or passages of the source.

Legend:
[1] = biological target: p53 peptide (Homo sapiens) (UniProt P04637)
[2] = biological target: p53 peptide (Homo sapiens) (UniProt P04637); remark: listed apart in the source

Sequence of p53 peptide (Homo sapiens) (P04637 whole entry): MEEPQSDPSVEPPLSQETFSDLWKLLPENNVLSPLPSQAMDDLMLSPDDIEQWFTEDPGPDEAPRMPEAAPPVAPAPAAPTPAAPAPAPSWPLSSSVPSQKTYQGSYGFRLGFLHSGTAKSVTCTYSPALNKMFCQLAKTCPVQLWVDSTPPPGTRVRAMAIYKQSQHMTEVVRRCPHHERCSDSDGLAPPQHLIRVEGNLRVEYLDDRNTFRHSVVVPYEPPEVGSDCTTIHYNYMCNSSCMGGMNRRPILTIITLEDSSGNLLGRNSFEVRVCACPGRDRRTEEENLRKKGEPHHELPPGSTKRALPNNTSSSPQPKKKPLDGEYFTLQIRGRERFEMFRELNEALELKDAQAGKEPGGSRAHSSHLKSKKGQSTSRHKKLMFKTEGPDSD
Sequence of MDM2 (Q00987 whole entry): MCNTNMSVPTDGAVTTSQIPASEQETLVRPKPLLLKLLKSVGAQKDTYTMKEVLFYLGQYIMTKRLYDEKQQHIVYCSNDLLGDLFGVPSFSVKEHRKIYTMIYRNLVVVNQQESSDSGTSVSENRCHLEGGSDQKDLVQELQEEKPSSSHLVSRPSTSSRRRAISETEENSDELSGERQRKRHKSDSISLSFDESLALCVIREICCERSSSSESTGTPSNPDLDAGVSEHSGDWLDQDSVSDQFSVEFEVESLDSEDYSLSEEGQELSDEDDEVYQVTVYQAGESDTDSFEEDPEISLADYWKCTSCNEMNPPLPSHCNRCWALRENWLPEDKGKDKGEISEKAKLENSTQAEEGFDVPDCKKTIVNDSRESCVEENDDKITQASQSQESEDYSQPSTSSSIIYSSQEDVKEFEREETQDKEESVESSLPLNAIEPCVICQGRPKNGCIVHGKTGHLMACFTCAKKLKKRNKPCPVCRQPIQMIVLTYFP
Sequence of MDMX (O15151 whole entry): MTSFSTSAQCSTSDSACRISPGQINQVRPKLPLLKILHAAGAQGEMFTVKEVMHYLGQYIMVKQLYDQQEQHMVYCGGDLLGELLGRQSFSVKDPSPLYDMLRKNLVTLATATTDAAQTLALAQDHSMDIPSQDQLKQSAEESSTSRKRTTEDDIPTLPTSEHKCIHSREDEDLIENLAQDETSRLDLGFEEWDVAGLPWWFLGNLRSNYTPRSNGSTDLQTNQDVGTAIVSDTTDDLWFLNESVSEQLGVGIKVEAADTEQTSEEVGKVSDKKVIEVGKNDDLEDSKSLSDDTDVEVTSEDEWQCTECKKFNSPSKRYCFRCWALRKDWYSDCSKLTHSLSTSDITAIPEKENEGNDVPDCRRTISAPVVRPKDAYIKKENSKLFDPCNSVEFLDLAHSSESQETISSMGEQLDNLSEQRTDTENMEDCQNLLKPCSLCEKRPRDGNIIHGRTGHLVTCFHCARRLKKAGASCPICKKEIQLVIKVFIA

Row | Kd [1] [nM] | Kd [2] [nM] | Substance
1 | 1110 | – | MDM2 (from UniProt Q00987)
2 | – | 340 | MDMX (from UniProt O15151)
